Test results published in patent US20220213198A1, “METHOD OF TREATMENT” (The Council of the Queensland Institute of Medical Research, priority 2019, published 2022).

B1: 8F2.F9: anti-MR1 blocking antibody from hybridoma clone 8F2.F9, IgG1 isotype; heavy chain SEQ ID NO: 14, light chain SEQ ID NO: 18 (antibody, listed as Mus musculus, V domains shown)
VH: MKFSWVIFFLMAVVTGVNSEVQLQQSVAELVRPGASVKLSCTASGFNIKNTYMHWVKKRPELGLEWIGRIDPANGNTNFAPKFQGKATITADTSSNTAYLQLSSLTSEDTAIYYCPRGSGNYYFDYWGQGTTLTVSS
VL: MSSAQFLGLLLLCFQGTRCDIQMTQTTSSLSASLGDRVTISCRASQDISNYLNWYQQKPDGPVKLLIYYTSRLHSGVPSRFSGSGSGTDYSLTINNLAQEDIATYFCQQGNTLPYTFGGGTKLEIK

Columns and labels:
[1] = system: MR1 / MAIT cells; details: cited from earlier work
[2] = system: B16F10 melanoma cells; test: B16F10 experimental lung metastasis model; assay type: in vivo, mouse
Protocol: FIG. 2. […] (A) The schematic and timeline of expanding MAIT cells from splenocytes derived from C57BL/6 WT mice with IL-2 and 5-OP-RU, for sorting and adoptive transfer into tumor-bearing mice. (B, C) Groups of WT or MR1^−/− or Rag2cγ^−/− mice (n=5-6/group) were injected i.v. with (B) 1×10^5 or (C) 1×10^4 B16F10 melanoma cells. In some groups, sorted MAIT or T conventional cells (cT) (non-MAIT αβ^+ T cells) (2×10^5 cells/mouse) from C57BL/6 (B) WT or (C) TCRδ^−/− mice were i.v. injected into the indicated groups of mice one day before tumor inoculation. (C) One group of mice received i.v injection of media alone as a control. (B, C) On day 14 relative to tumor cell inoculation, lungs were harvested and the metastatic burden was quantified by counting colonies on the lung surface. Data presented as mean±SEM. (D) B16F10 or LWT1 melanoma cells were stimulated in vitro with DMSO or 5-OP-RU (100 nM) for 4 hours before cell surface MR1 expression was determined by flow cytometry. Groups of C57BL/6 WT or MR1^−/− mice (n=5-6/group) were i.v. injected with (E) 1×10^5 B16F10 or (F) 5×10^5 LWT1 cells melanoma cells pulsed with DMSO or 5-OP-RU (100 nM, 4 hours). Fourteen days later relative to tumor cell inoculation, lungs were harvested and the metastatic burden was quantified by counting colonies on the lung surface. Data presented as mean±SEM. Experiments performed once for (B, C, F) and three times for (D, E) with one representative experiment shown. Significant differences between groups as indicated by crossbars were determined using a one-way ANOVA followed by Tukey's post-hoc test (B, E, F), *p<0.05, **p<0.01, ****p<0.0001
FIG. 5. […] (A) Generation of three independent B16F10 cell lines knocked out for MR1 using three different MR1 sgRNA. […] Empty vector transfected B16F10 cells were used as a positive control. (B, C) Groups of C57BL/6 WT, MR1^−/− or Rag2cγ^−/− mice (n=5-6/group) were i.v. injected with either (B) 1×10^5 B16F10 vector control cells or the indicated clone of B16F10 cells lacking MR1 (sgR1, sgR2, sgR3) or (C) 1×10^4 B16F10-MR1^KO cells (sgR3 clone). On day 14 relative to tumor cell inoculation, lungs were harvested and the metastatic burden was quantified by counting colonies on the lung surface. Data presented as mean±SEM. (D) Re-expression of GFP or GFP-MR1 expressing vector into B16F10-MR1^KO (sgR3 clone). MR1 surface expressions of these cells stimulated with or without 5-OP-RU were assessed by flow cytometry. (E) Groups of C57BL/6 WT mice (n=6/group) were i.v. injected with 1×10^5 B16F10-MR1^KO (sgR3 clone) transfected with empty GFP-expressing vector or MR1-GFP-expressing vector. (F) Groups of C57BL/6 WT or MR1^−/− mice were i.v. injected with parental B16F10 cells treated with vehicle (dd H2O) or AC-6-FP (10 μM, 18 hours). On day 14 relative to tumor cell injection, lungs were harvested and the metastatic burden was quantified by counting colonies on the lung surface. Data presented as mean±SEM. Experiments performed twice for (A-E) and once for (F). Significant differences between groups as indicated by crossbars were determined by a one-way ANOVA followed by Tukey's post-hoc test (A, F), or a Mann-Whitney test (C, E), *p<0.05, **p<0.01, ****p<0.0001.
FIG. 6. […] Groups of C57BL/6 WT or MR1^−/− mice (n=5-6/group) were i.v. injected with (A, B) 1×10^5 B16F10, (C) 1×10^5 parental B16F10 or 2×10^5 B16F10-MR1^KO (sgR3 clone) melanoma cells and (D) 5×10^5 LWT1 melanoma cells or s.c injected with (E) 1×10^6 MCA1956 fibrosarcoma or (F) 1×10^6 SM1WT1 melanoma cells on day 0.

| Molecule | effect on MAIT cell activation ([1]; background statement) | number of lung metastases ([2]; MR1-/- mice i.v. injected with pre-treated B16F10, vs DMSO-treated, day 14) | number of lung metastases ([2]; WT mice i.v. injected with B16F10 pre-treated 100 nM 4 h, vs DMSO-treated, day 14) | blocking of MAIT cell interaction with MR1 ([1]; stated as known) | number of lung metastases ([2]; B16F10 tumor-bearing MR1-/- mice, antibody vs cIg) | suppression of B16F10 lung metastases compared with the 26.5 clone ([2]; WT mice, 250 μg/mouse i.p.) | suppression of B16F10 lung metastases, three vs four doses ([2]; WT mice, 250 μg/mouse i.p., days -1, 0, 3 vs days -1, 0, 3 and 7) | B16F10-MR1 KO (sgR3) lung metastases numbers ([2]; WT mice, antibody vs cIg, days -1, 0 and 3) |
| --- | --- | --- | --- | --- | --- | --- | --- | --- |
| CC(=O)C=Nc1c(NC[C@H](O)[C@H](O)[C@H](O)CO)[nH]c(=O)[nH]c1=O [5-OP-RU] | one of the most potent stimulatory MAIT cell antigens | this increase was lost | significantly increased | – | – | – | – | – |
| B1 | – | – | – | block MAIT cells from interacting with MR1 | no further decrease | superior | equivalently reduced | not reduced |
